From PMC4877379
Where a chain is given by its changes, count along the chain named.

Legend:
[1] = target: T1, CodY (B. cereus INRA C3) (Bacillus cereus INRA C3) (UniProt Q819X8); experiment: EMSA
T1 sequence: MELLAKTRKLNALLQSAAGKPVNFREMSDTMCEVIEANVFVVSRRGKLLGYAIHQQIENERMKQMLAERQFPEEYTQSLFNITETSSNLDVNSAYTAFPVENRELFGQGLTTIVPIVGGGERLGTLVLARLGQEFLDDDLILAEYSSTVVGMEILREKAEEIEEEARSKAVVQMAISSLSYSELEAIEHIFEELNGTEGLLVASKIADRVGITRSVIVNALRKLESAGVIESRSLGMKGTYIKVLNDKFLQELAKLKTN

[2] = target: T2, CodY (B. cytotoxicus CVUAS 2833) (Bacillus cytotoxicus CVUAS 2833) (UniProt A7GRF8); experiment: EMSA
T2 sequence: T1 sequence with S78N, I82V, A94E, R103K, E104D, Q133R, S147A, Q251H

Substance | Kd [1] | Kd [2]
PinhA1 INRA C3 | 250 nM | –
PcytK-1 | – | > 1000 nM
AAATTATCGATCGTAATCGACAAAATTTTTCTATTTACGCATTAAAAATTTAATGTTTTAATGAACAACATAACTGGTATGACCAGACAGAAAGGATAAGGTTACGCTAATAGGAATTATAGTGAAGTTGTAAGTAACATTATGTTGAAAATATTTTTCGAATAGTCTATTTATTTACAAGAGGTCAAGAATCAAGTTTGTAATAAACGTGTTCTAAGTTTCTGCATAACAAAAGTGAAGTTATTCCGCAATAAAAGTATAAGCGATGTACAGTATAATTTTACCTTTTTTAGTCTAGTAAGGAGTTTGCTGA (double strand) [Phbl-2] | 250 nM | –
PcytK-2 | > 1000 nM | –
AATAATGATATTAGGATGTTTTGTGAAAAAATCAACAATATAACATATATTACTAAATATATCTACATTTTATGCAATTATACATAACTAAATAAAGGTAAAAAAGTATAAAAAGACCTATTATATTATTCTATAAGTATTTTTTCTAAAATAAAATTTCTCGGTTGAGCTAAAATAGTTATTTTTAACCGTATACACATTAATTTGTAATCATTACAATTACAGAAATGAAATTTACGGATAACTATATTTGTATAATTTTTTTCGGTTCATATTTTTATTTAACAGTAAATTATCGATCGTAATC (double strand) [Phbl-1] | 700 nM | –
CAAGTTTGTAATAAACGTGTTCTAAGTTTCTGCATAACAAAAGTGAAGTTATTCCGCAATAAAAGTATAAGCGATGTACAGTATAATTTTACCTTTTTTAGTCTAGTAAGGAGTTTGCTGATAAAACTAAGAGTAATATTATTAAATTTAAATTAAACAATGTTATGGCAAGATTAACTGTAAGCATTGGTTTATTGATTCTCGCGGTTCTGTAAGTTAAACCGCAATTCTAGGGAAGAATTACACATTTACTATTCATAGGGTGCTTGATTCAAATATAGTTAATAAATTTTTGTTATTTATATTTGAAAAAATAGAGTATCGAAGTGAGAGG (double strand) [Phbl-4] | 700 nM | –
TCTAGTAAGGAGTTTGCTGATAAAACTAAGAGTAATATTATTAAATTTAAATTAAACAATGTTATGGCAAGATTAACTGTAAGCATTGGTTTATTGATTCTCGCGGTTCTGTAAGTTAAACCGCAATTCTAGGGAAGAATTACACATTTACTATTCATAGGGTGCTTGATTCAAATATAGTTAATAAATTTTTGTTATTTATATTTGAAAAAATAGAGTATCGAAGTGAGAGGTAAGTAAAATCCTTACATTCTATTAGAAGTAAAAAATAACGATATTATCCTATCTGAAAGATTTCTCCTTCTTAATCAGTTTACAAAGAGAGAGGTCATACAAGTTATATGAATTAAGTTATAAAAACAATGGTAAAGGAGTGTACGGAAT (double strand) [Phbl-3] | 700 nM | –
ATCCGAATTCTGTATATGCTATGCATAATTGCATACGGGGTTAAAAATTATATCAATATAATTTTACCGGTTGTTTGCAAGTAGTGTTTTCTGTTGTGATATGTAGATATTTCAATCGATAAAGTGAATCGGATTATATTTTGAAATAAGGACATGAAAGCTTGAAAATAAAGGGAATGAAAATACTTCTTTACGTTATATAAACAGCTGTGTTTAAATGACCTTACAGTACAAAACTTATATGAAAACAAAACGAAATTTCATATTTACGTATGTTGTTTGGTTTAAAATGAATAATATTTTTATGTAATATATTCACTGTGTGAATGTGGGAATTTCGATGAAATAGAAAATTTATACAATATTATTCATACTAAACACATATGAAAAGTTTTATAACAATAAGTAAGTACTGTAGCAATAACAGTTGGGAGAGATGGTTCATACATAGATCACGGTGAGAACGTTCTCTATTTTAACCATCTCAAATTATGGGCAAGAAAATAGAATAATAAAATGCGATAGTAATAGTTGCTAATACATAGGAGGAGTTAAAGTGGATCCGACT (double strand) [Pnhe INRA C3] | 125 nM | –
